Measurements reported in patent US7902330.
Each block holds one binder with its values, some of them ahead of it. Starred links: 1 amine or outer side, 2 acyl side, 3 side chain; linkers in the order of their positions; H or OH if unused. Non-standard residues stand in square brackets, D forms with d. No end group written: not given here. *: point of attachment. 4‑nitrohippuryl = O=C(NCC(=O)*)c1ccc([N+](=O)[O-])cc1; Benzoyl(4-(pyrrol-1-yl)) = O=C(c1ccc(-n2cccc2)cc1)*; bis(2,3-dihydroxybenzyl) = not defined here; 10‑hydroxydecanoyl = O=C(CCCCCCCCCO)*; Cysteamide = C(CS[*:3])N[*:1]; Dap = NC[C@H](N)C(=O)O

Columns and labels:
[1] = molecular target: protein kinase C δ, Q05655; test: cell-based or functional assay
other PKC isoforms = test: cell-based or functional assay
[2] = molecular target: T1, acetyl-Pro-Arg-Lys-Arg-Glu-Gly-Ser-Val-Arg-Arg-Arg-NH2
T1 chain: PRKREGSVRRR

a subset of other PKCs = test: cell-based or functional assay

B1: protein kinase C ε (protein)
chain: MVVFNGLLKIKICEAVSLKPTAWSLRHAVGPRPQTFLLDPYIALNVDDSRIGQTATKQKTNSPAWHDEFVTDVCNGRKIELAVFHDAPIGYDDFVANCTIQFEELLQNGSRHFEDWIDLEPEGRVYVIIDLSGSSGEAPKDNEERVFRERMRPRKRQGAVRRRVHQVNGHKFMATYLRQPTYCSHCRDFIWGVIGKQGYQCQVCTCVVHKRCHELIITKCAGLKKQETPDQVGSQRFSVNMPHKFGIHNYKVPTFCDHCGSLLWGLLRQGLQCKVCKMNVHRRCETNVAPNCGVDARGIAKVLADLGVTPDKITNSGQRRKKLIAGAESPQPASGSSPSEEDRSKSAPTSPCDQEIKELENNIRKALSFDNRGEEHRAASSPDGQLMSPGENGEVRQGQAKRLGLDEFNFIKVLGKGSFGKVMLAELKGKDEVYAVKVLKKDVILQDDDVDCTMTEKRILALARKHPYLTQLYCCFQTKDRLFFVMEYVNGGDLMFQIQRSRKFDEPRSRFYAAEVTSALMFLHQHGVIYRDLKLDNILLDAEGHCKLADFGMCKEGILNGVTTTTFCGTPDYIAPEILQELEYGPSVDWWALGVLMYEMMAGQPPFEADNEDDLFESILHDDVLYPVWLSKEAVSILKAFMTKNPHKRLGCVASQNGEDAIKQHPFFKEIDWVLLEQKKIKPPFKPRIKTKRDVNNFDQDFTREEPVLTLVDEAIVKQINQEEFKGFSYFGEDLMP
Km of the peptide substrate [2]: 5.9 µM (PKCε)

Binder: Ac-RRQG[Dap](Ac)FMYF-Cysteamide [Compound A (diacetylated consensus derivative)]
IC50, PKC kinase assay [1]: 50 µM

Binder: Ac-RRQG[Dap](10‑hydroxydecanoyl)FMYF-Cysteamide [Compound B]
selectivity for PKC ζ versus a subset of other PKCs (a subset of other PKCs): < 10 fold

Other lines, results leading:

Fold selectivity (IC50), PKC ζ = 1 [1]: 693 fold
IC50, PKC kinase assay (33P, peptide substrate) [1]: 5.2 µM
Binder: {bis(2,3-dihydroxybenzyl)}-RRQG[Dap](4‑nitrohippuryl)FMYF-Cysteamide (reading uncertain) [Compound G (doubly alkylated analogue of F)]

selectivity for PKCα versus other PKC isoforms (other PKC isoforms): < 3 fold
Binder: Ac-ARRGALR[Dap](Benzoyl(4-(pyrrol-1-yl)))A-Cysteamide [compound 3 (lead from library III)]

selectivity for PKC ζ versus a subset of other PKCs (a subset of other PKCs): < 10 fold
B2: Compound C (peptide)
peptide: Ac-RRQG[Dap](4‑nitrohippuryl)FMYF-Cysteamide
SMILES: CSCC[C@H](NC(=O)[C@H](Cc1ccccc1)NC(=O)[C@H](CNC(=O)CNC(=O)c1ccc([N+](=O)[O-])cc1)NC(=O)CNC(=O)[C@H](CCC(N)=O)NC(=O)[C@H](CCCNC(=N)N)NC(=O)[C@H](CCCNC(=N)N)NC(C)=O)C(=O)N[C@@H](Cc1ccc(O)cc1)C(=O)N[C@@H](Cc1ccccc1)C(=O)NCCS

selectivity for PKCα versus this isoform [1]: 2730 fold
Binder: ARRGALR[Dap](Benzoyl(4-(pyrrol-1-yl)))A-Cysteamide (also: further groups not given here) [compound 6 (primary lead from library IV)]

IC50, PKC kinase assay (33P, peptide substrate) [1]: 0.025 µM
Selectivity (IC50 relative to PKC βI = 1) [1]: 3.1 fold
Binder: H-RRQG[Dap]FMYF-Cysteamide (not fully specified (residue 5)) [Compound E (nonacylated free amine)]
